These are literature values, as cited in publication PMC7080216.

Data set [1] deals with cathepsin G (Homo sapiens) (UniProt P08311).
In data set [2] the target is matriptase (Homo sapiens) (UniProt Q9Y5Y6).
Sequence of UniProt Q9Y5Y6 (Q9Y5Y6 whole entry): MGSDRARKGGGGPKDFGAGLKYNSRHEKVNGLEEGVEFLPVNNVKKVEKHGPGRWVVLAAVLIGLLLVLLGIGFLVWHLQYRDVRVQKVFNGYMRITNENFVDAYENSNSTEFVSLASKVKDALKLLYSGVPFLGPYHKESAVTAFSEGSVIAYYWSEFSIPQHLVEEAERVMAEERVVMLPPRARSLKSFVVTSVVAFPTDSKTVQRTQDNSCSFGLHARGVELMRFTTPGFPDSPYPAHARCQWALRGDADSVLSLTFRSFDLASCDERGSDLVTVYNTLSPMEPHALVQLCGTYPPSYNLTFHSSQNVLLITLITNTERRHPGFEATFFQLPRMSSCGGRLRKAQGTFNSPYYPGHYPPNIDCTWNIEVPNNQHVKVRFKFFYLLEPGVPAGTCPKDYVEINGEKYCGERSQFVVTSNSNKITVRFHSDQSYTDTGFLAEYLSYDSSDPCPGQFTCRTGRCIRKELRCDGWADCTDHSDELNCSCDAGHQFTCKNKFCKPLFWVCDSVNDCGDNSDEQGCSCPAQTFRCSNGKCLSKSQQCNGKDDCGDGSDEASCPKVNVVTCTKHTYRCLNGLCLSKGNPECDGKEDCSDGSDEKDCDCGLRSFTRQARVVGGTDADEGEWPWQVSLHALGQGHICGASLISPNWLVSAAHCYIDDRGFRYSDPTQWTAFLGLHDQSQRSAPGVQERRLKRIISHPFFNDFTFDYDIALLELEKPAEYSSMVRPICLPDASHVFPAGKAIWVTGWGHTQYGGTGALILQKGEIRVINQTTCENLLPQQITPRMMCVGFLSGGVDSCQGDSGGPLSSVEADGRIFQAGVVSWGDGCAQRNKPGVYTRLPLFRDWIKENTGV

Sequence of UniProt P08311 (P08311 21-243): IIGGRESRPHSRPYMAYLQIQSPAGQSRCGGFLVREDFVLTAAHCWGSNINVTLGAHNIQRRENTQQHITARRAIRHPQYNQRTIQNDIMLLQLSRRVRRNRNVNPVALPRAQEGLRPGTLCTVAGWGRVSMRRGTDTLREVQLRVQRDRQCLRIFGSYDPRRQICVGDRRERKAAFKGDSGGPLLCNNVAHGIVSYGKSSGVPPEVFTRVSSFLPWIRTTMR

As for SFTI-1 (from UniProt Q4GWU5), the inhibitory constant (Ki) in data set [1] was 570 nM; in data set [2], 1 nM.

Broadly, the Ki is a measure of affinity in units of concentration, obtained from inhibition or displacement.
